{"source": "paper PMC6399320", "about": "“The SIAH2-NRF1 axis spatially regulates tumor microenvironment remodeling for tumor progression” (Nature Communications, 2019)", "target": "T1, His-NRF1 (Nuclear Respiratory Factor 1), bacterially expressed (UniProt Q16656 1-503)", "T1 construct": "Nuclear Respiratory Factor 1 (NRF1), cDNA cloned into pET28a; Vector pET28a; source: Escherichia coli BL21, expressed and purified", "T1 sequence (looked up)": "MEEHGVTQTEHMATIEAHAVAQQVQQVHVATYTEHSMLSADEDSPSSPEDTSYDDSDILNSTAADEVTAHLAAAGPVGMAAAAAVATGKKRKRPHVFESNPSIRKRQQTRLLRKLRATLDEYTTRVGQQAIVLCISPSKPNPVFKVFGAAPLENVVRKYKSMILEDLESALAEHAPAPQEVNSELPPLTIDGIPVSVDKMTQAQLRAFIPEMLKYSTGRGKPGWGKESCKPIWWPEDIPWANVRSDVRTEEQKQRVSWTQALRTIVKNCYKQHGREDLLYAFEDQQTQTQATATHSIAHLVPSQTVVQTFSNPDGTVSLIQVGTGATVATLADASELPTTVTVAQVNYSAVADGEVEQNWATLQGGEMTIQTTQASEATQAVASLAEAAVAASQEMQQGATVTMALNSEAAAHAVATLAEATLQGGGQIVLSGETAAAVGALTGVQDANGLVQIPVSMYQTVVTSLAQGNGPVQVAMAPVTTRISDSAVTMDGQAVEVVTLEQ", "assay": "pull-down; GST pull-down in vitro with bacterially expressed His-NRF1 and GST-SIAH2", "conditions": "both partners purified"}
{"binder": "GST-SIAH2, bacterially expressed (enzyme, UniProt O43255 1-324, looked up, E3 ligase SIAH2, cDNA cloned into pGEX-4T-1; Vector pGEX-4T-1; source: Escherichia coli BL21, expressed and purified) MSRPSSTGPSANKPCSKQPPPQPQHTPSPAAPPAAATISAAGPGSSAVPAAAAVISGPGGGGGAGPVSPQHHELTSLFECPVCFDYVLPPILQCQAGHLVCNQCRQKLSCCPTCRGALTPSIRNLAMEKVASAVLFPCKYATTGCSLTLHHTEKPEHEDICEYRPYSCPCPGASCKWQGSLEAVMSHLMHAHKSITTLQGEDIVFLATDINLPGAVDWVMMQSCFGHHFMLVLEKQEKYEGHQQFFAIVLLIGTRKQAENFAYRLELNGNRRRLTWEATPRSIHDGVAAAIMNSDCLVFDTAIAHLFADNGNLGINVTISTCCP", "values": [{"measurement": "binding result", "result": "binds"}]}
